Test results from IntAct's records for PubMed 24418540.

Molecular target: pebb_human CBFB (UniProt Q13951)

Substance	effect of a mutation on the interaction
Virion infectivity factor (Human immunodeficiency virus type 1 group M subtype B (isolate HXB2) (HIV-1)), P69723 Y69A	decreasing interaction strength
Virion infectivity factor (Human immunodeficiency virus type 1 group M subtype B (isolate HXB2) (HIV-1)), P69723 W38A	decreasing interaction strength
Virion infectivity factor (Human immunodeficiency virus type 1 group M subtype B (isolate HXB2) (HIV-1)), P69723 E88A;W89A	disrupting interaction strength
Virion infectivity factor (Human immunodeficiency virus type 1 group M subtype B (isolate HXB2) (HIV-1)), P69723 W89A	disrupting interaction strength
Virion infectivity factor (Human immunodeficiency virus type 1 group M subtype B (isolate HXB2) (HIV-1)), P69723 W21A	disrupting interaction strength
